Measured values: patent US20250074980A1 (BRIGHAM AND WOMEN S HOSPITAL, published 2025)
Where two headings read alike, the source gives them in different places.

Assays:
Test in all cases: SPR single-cycle, supernatant IgG captured
His-tagged CEACAM1 [1] = target: T1, His-tagged CEACAM1 (human, UniProt P13688 35-428)
T1 construct: 45 kDa SPR analyte; also called CEACAM1-HIS; CEACAM1 analyte
T1 sequence: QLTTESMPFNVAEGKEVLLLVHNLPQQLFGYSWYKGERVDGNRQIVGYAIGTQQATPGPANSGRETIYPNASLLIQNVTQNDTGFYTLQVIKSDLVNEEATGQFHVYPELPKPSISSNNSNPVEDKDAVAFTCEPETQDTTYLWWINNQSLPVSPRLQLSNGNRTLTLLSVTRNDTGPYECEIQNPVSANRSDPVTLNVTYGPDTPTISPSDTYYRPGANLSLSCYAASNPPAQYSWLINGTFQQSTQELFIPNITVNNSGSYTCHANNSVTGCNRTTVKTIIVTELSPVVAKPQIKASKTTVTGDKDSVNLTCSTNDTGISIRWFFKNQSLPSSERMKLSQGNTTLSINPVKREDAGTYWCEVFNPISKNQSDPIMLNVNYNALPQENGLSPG
Procedure: (§1) In order to assess the binding of the humanized, affinity matured reformatted lead IgGs, single-cycle kinetics analysis was performed on crude supernatants using a Biacore T200 running Biacore T200 Control Software V2.0.1 and Biacore T200 Evaluation Software V3.0. Antibodies were diluted in HBS-P+ to a final concentration of 0.5 μg/ml. At the start of each cycle, antibodies were loaded onto Fc2, Fc3 and Fc4 of the Protein A chip. IgGs were captured at a flow rate of 10 μl/min to give an immobilisation level (RL) of ˜100 RU (a level calculated to obtain a Rₘₐₓ of ˜50-150 RU once the analyte is bound). The surface was then allowed to stabilize. Single-cycle kinetics data was obtained with CEACAM1 as the analyte at a flow rate of 80 μl/min to minimize any potential mass transfer effects. Multiple repeats with the parent (VH1/Vκ8 S29A) antibody were performed to check the stability of the surface and analyte over the kinetic cycles. The signal from the reference channel Fc1 (no antibody) was subtracted from that of Fc2, Fc3 and Fc4 to correct for differences in non-specific binding to the reference surface. A three point, two-fold dilution range from 70 nM to 280 nM CEACAM1 without regeneration between each concentration was used. The signal from each antibody blank run (no CEACAM1) was subtracted to correct for differences in surface stability. The association phase for the three injections of increasing concentrations of CEACAM1 was monitored for 80 seconds each time and a single dissociation phase was measured for 150 seconds following the last injection of CEACAM1. Regeneration of the Protein A surface was conducted using two injections of 10 mM glycine-HCL pH 1.5 followed by a stabilization period of 250 seconds.

His-tagged CEACAM1 [2] = target: T1, His-tagged CEACAM1; remark: listed apart in the source
Procedure: as §1

His-tagged CEACAM1 [3] = target: T1, His-tagged CEACAM1; remark: listed apart in the source
Procedure, shortened: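 Antibody IgG was produced by transient PEI transfection of HEK EBNA cells in 6-well plates, with supernatants collected 5-7 days later, quantified by ELISA and filtered. Binding was measured by single-cycle surface plasmon resonance on a Biacore T200 at 25° C in HBS-P+ (pH 7.4), capturing IgG on Protein A and flowing His-tagged CEACAM1 as analyte. Kon, koff and Kd were obtained by fitting, and relative KD was expressed against the parent antibody tested in the same experiment.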

| Binder | Kd (His-tagged CEACAM1 [1]) [µM] | koff (His-tagged CEACAM1 [1]) [s⁻¹] | kon (His-tagged CEACAM1 [1]) [M⁻¹ s⁻¹] | relative KD to parent (His-tagged CEACAM1 [1]) | Kd (His-tagged CEACAM1 [2]) [µM] | koff (His-tagged CEACAM1 [2]) [s⁻¹] | kon (His-tagged CEACAM1 [2]) [M⁻¹ s⁻¹] | relative KD to parent (His-tagged CEACAM1 [2]) | Kd (His-tagged CEACAM1 [3]) [µM] | koff (His-tagged CEACAM1 [3]) [s⁻¹] | kon (His-tagged CEACAM1 [3]) [M⁻¹ s⁻¹] | relative KD to parent (His-tagged CEACAM1 [3]) |
| --- | --- | --- | --- | --- | --- | --- | --- | --- | --- | --- | --- | --- |
| 8H3_9C2 (CDR1)/CP08E05 (antibody, IgG4, V domains shown, IgG4 (S241P), kappa) VH: EVQLLESGGGLVQPGGSLRLSCAASEFTFSDHAMSWVRQAPGKGLEWVATISSGGTYTYYPDSVKGRFTISRDNSKNTLYLQMNSLKAEDTAMYYCARHDFDYFPYWFAHWGQGTLVTVSS VL: EIVLTQSPATLSLSPGERATLSCRANSAVSYMYWYQQKPGQAPRPWIYLTSNRATGVPARFSGSGSGTDYTLTISSLEPEDFAVYYCQQWTTNPPTFGQGTKLEIK | 0.25 | 0.019 | 73000 | 2.2 | – | – | – | – | – | – | – | – |
| CP09B03/Vκ8 S29A (antibody, IgG4, V domains shown, IgG4 (S241P), kappa) VH: EVQLLESGGGLVQPGGSLRLSCAASGFTFNAHAISWVRQAPGKGLEWVATISSGGTYTYYPDSVKGRFTISRDNSKNTLYLQMNSLKAEDTAMYYCARHDFDYDAAWFAYWGQGTLVTVSS VL: EIVLTQSPATLSLSPGERATLSCRANSAVSYMYWYQQKPGQAPRPWIYLTSNRATGVPARFSGSGSGTDYTLTISSLEPEDFAVYYCQQWSSNPPTFGQGTKLEIK | – | – | – | – | 0.26 | 0.039 | 150000 | 2.4 | 0.3 | 0.052 | 170000 | 1.8 |
| 8H3_9C2 (CDR1)/Vκ8 S29A (antibody, IgG4, V domains shown, IgG4 (S241P), kappa) VH: EVQLLESGGGLVQPGGSLRLSCAASEFTFSDHAMSWVRQAPGKGLEWVATISSGGTYTYYPDSVKGRFTISRDNSKNTLYLQMNSLKAEDTAMYYCARHDFDYFPYWFAHWGQGTLVTVSS VL: EIVLTQSPATLSLSPGERATLSCRANSAVSYMYWYQQKPGQAPRPWIYLTSNRATGVPARFSGSGSGTDYTLTISSLEPEDFAVYYCQQWSSNPPTFGQGTKLEIK | 0.21 | 0.018 | 88000 | 2.7 | – | – | – | – | – | – | – | – |
| VH1/CP08E01 (antibody, IgG4, V domains shown, IgG4 (S241P), kappa; also called Parent VH/CP08E01) VH: EVQLLESGGGLVQPGGSLRLSCAASGFIFSSHGMSWVRQAPGKGLEWVATISSGGTYTYYPDSVKGRFTISRDNSKNTLYLQMNSLKAEDTAMYYCARHDFDYDAAWFAYWGQGTLVTVSS VL: EIVLTQSPATLSLSPGERATLSCRANSAVSYMYWYQQKPGQAPRPWIYLTSNRATGVPARFSGSGSGTDYTLTISSLEPEDFAVYYCQQWTTFPPTFGQGTKLEIK | – | – | – | – | 0.17 | 0.054 | 330000 | 3.7 | 0.45 | 0.053 | 120000 | 1.2 |
| 8H3_9C2/CP08E05 (antibody, IgG4, V domains shown, IgG4 (S241P), kappa) VH: EVQLLESGGGLVQPGGSLRLSCAASEFTFSDHAMSWVRQAPGKGLEWVATISSGGTYTYYPDSVKGRFTISRDNSKNTLYLQMNSLKAEDTAMYYCARHGFDYFPYWFAHWGQGTLVTVSS VL: EIVLTQSPATLSLSPGERATLSCRANSAVSYMYWYQQKPGQAPRPWIYLTSNRATGVPARFSGSGSGTDYTLTISSLEPEDFAVYYCQQWTTNPPTFGQGTKLEIK | 0.11 | 0.0071 | 67000 | 5.3 | – | – | – | – | – | – | – | – |
| VH1/CP08F05 (antibody, IgG4, V domains shown, IgG4 (S241P), kappa; also called Parent VH/CP08F05) VH: EVQLLESGGGLVQPGGSLRLSCAASGFIFSSHGMSWVRQAPGKGLEWVATISSGGTYTYYPDSVKGRFTISRDNSKNTLYLQMNSLKAEDTAMYYCARHDFDYDAAWFAYWGQGTLVTVSS VL: EIVLTQSPATLSLSPGERATLSCRANSAVSYMYWYQQKPGQAPRPWIYLTSNRATGVPARFSGSGSGTDYTLTISSLEPEDFAVYYCQQWTSNPPTFGQGTKLEIK | – | – | – | – | 0.28 | 0.11 | 400000 | 2.2 | 0.28 | 0.029 | 100000 | 2 |
| VH1/CP08E05 (antibody, IgG4, V domains shown, IgG4 (S241P), kappa; also called Parent VH/CP08E05) VH: EVQLLESGGGLVQPGGSLRLSCAASGFIFSSHGMSWVRQAPGKGLEWVATISSGGTYTYYPDSVKGRFTISRDNSKNTLYLQMNSLKAEDTAMYYCARHDFDYDAAWFAYWGQGTLVTVSS VL: EIVLTQSPATLSLSPGERATLSCRANSAVSYMYWYQQKPGQAPRPWIYLTSNRATGVPARFSGSGSGTDYTLTISSLEPEDFAVYYCQQWTTNPPTFGQGTKLEIK | – | – | – | – | 0.14 | 0.034 | 240000 | 4.4 | 0.23 | 0.034 | 150000 | 2.4 |
| CP09C02/Vκ8 S29A (antibody, IgG4, V domains shown, IgG4 (S241P), kappa) VH: EVQLLESGGGLVQPGGSLRLSCAASEFTFSDHAMSWVRQAPGKGLEWVATISSGGTYTYYPDSVKGRFTISRDNSKNTLYLQMNSLKAEDTAMYYCARHGFDYDAAWFAYWGQGTLVTVSS VL: EIVLTQSPATLSLSPGERATLSCRANSAVSYMYWYQQKPGQAPRPWIYLTSNRATGVPARFSGSGSGTDYTLTISSLEPEDFAVYYCQQWSSNPPTFGQGTKLEIK | – | – | – | – | 0.088 | 0.017 | 200000 | 7.1 | 0.17 | 0.019 | 110000 | 3.3 |
| 8H3_9C2 (CDR1)/CP08F05 (antibody, IgG4, V domains shown, IgG4 (S241P), kappa) VH: EVQLLESGGGLVQPGGSLRLSCAASEFTFSDHAMSWVRQAPGKGLEWVATISSGGTYTYYPDSVKGRFTISRDNSKNTLYLQMNSLKAEDTAMYYCARHDFDYFPYWFAHWGQGTLVTVSS VL: EIVLTQSPATLSLSPGERATLSCRANSAVSYMYWYQQKPGQAPRPWIYLTSNRATGVPARFSGSGSGTDYTLTISSLEPEDFAVYYCQQWTSNPPTFGQGTKLEIK | 0.24 | 0.017 | 72000 | 2.3 | – | – | – | – | – | – | – | – |
| VH1/CP08D02 (antibody, IgG4, V domains shown, IgG4 (S241P), kappa; also called Parent VH/CP08D02) VH: EVQLLESGGGLVQPGGSLRLSCAASGFIFSSHGMSWVRQAPGKGLEWVATISSGGTYTYYPDSVKGRFTISRDNSKNTLYLQMNSLKAEDTAMYYCARHDFDYDAAWFAYWGQGTLVTVSS VL: EIVLTQSPATLSLSPGERATLSCRANSAVSYMYWYQQKPGQAPRPWIYLTSNRATGVPARFSGSGSGTDYTLTISSLEPEDFAVYYCQQWTSFPPTFGQGTKLEIK | – | – | – | – | 0.1 | 0.043 | 430000 | 6.2 | 0.45 | 0.057 | 130000 | 1.2 |
| CP09E05/Vκ8 S29A (antibody, IgG4, V domains shown, IgG4 (S241P), kappa) VH: EVQLLESGGGLVQPGGSLRLSCAASGFIFSSHGMSWVRQAPGKGLEWVATISSGGTYTYYPDSVKGRFTISRDNSKNTLYLQMNSLKAEDTAMYYCARHGFDYDAAWFAYWGQGTLVTVSS VL: EIVLTQSPATLSLSPGERATLSCRANSAVSYMYWYQQKPGQAPRPWIYLTSNRATGVPARFSGSGSGTDYTLTISSLEPEDFAVYYCQQWSSNPPTFGQGTKLEIK | – | – | – | – | 0.32 | 0.037 | 120000 | 1.4 | 0.3 | 0.035 | 120000 | 1.8 |
| VH1/CP08G09 (antibody, IgG4, V domains shown, IgG4 (S241P), kappa; also called Parent VH/CP08G09) VH: EVQLLESGGGLVQPGGSLRLSCAASGFIFSSHGMSWVRQAPGKGLEWVATISSGGTYTYYPDSVKGRFTISRDNSKNTLYLQMNSLKAEDTAMYYCARHDFDYDAAWFAYWGQGTLVTVSS VL: EIVLTQSPATLSLSPGERATLSCRANSAVSYMYWYQQKPGQAPRPWIYLTSNRATGVPARFSGSGSGTDYTLTISSLEPEDFAVYYCQQWTAFPPTFGQGTKLEIK | – | – | – | – | 0.11 | 0.049 | 470000 | 5.9 | 0.48 | 0.057 | 120000 | 1.2 |
